According to the supplement of paper PMC10567573:

B1: FBF1 (parent)
chain: LQRASILDMRRDHEEQLQRLKLLK
B2: RHOBTB3 (parent)
chain: STTEGIQLAKELGATYLELHSLDD

Variants of: B1
Test: protein stability index of a GFP-peptide fusion (GPS, HEK-293T) (PSI 1-6); higher = more stable
Conditions: c terminus: a fixed tail appended
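Note: lentivirally expressed fusions sorted by FACS into six bins by GFP to DsRed ratio, PSI derived from sequencing read proportions per bin multiplied by bin number.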

Variant | protein stability index
R11V | 3.18
R11W | 2.64
R11Y | 2.68
D12A | 3.41
D12C | 2.51
D12E | 3.93
D12F | 2.74
D12G | 3.21
D12H | 3.3
D12I | 3.2
D12K | 3.15
D12L | 2.8
D12M | 2.81
D12N | 3.78
D12P | 3.38
D12Q | 3.71
D12R | 3.05
D12S | 3.31
D12T | 3.69
D12V | 2.94
D12W | 2.34
D12Y | 3.37
H13A | 3.89
H13C | 2.2
H13D | 3.69

Variant | protein stability index
H13E | 4.15
H13F | 3.17
H13G | 3.25
H13I | 2.54
H13K | 2.68
H13L | 2.36
H13M | 3.13
H13N | 3.95
H13P | 3.33
H13Q | 3.4
H13R | 3.19
H13S | 3.84
H13T | 3.27
H13V | 2.46
H13W | 2.38
H13Y | 2.83
E14A | 3.32
E14C | 2.79
E14D | 3.6
E14F | 2.38
E14G | 3.12
E14H | 3.13
E14I | 3.08
E14K | 3.43
E14L | 3.17

Variant | protein stability index
E14M | 2.56
E14N | 2.86
E14P | 2.82
E14Q | 3.49
E14R | 2.98
E14S | 2.95
E14T | 2.96
E14V | 2.69
E14W | 2.69
E14Y | 3.04
E15A | 3.4
E15C | 2.5
E15D | 3.34
E15F | 2.68
E15G | 3.56
E15H | 3.09
E15I | 2.37
E15K | 3.04
E15L | 2.56
E15M | 3.12
E15N | 2.91
E15P | 3.22
E15Q | 3.18
E15R | 3.22
E15S | 2.96

Variant | protein stability index
E15T | 3.39
E15V | 3.13
E15W | 2.29
E15Y | 2.84
Q16A | 3.18
Q16C | 3.09
Q16D | 4.02
Q16E | 3.64
Q16F | 1.73
Q16G | 4.09
Q16H | 2.64
Q16I | 2.28
Q16K | 3.61
Q16L | 2.73
Q16M | 1.38
Q16N | 3.48
Q16P | 3.51
Q16R | 2.77
Q16S | 3.43
Q16T | 3.45
Q16V | 3.04
Q16W | 2.97
Q16Y | 2.75
L17A | 3.9
L17C | 3.55

Variant | protein stability index
L17D | 4.23
L17E | 4.07
L17F | 3.17
L17G | 4.03
L17H | 4
L17I | 3.91
L17K | 4.05
L17M | 3.72
L17N | 3.91
L17P | 4.63
L17Q | 4.52
L17R | 3.54
L17S | 3.77
L17T | 4.19
L17V | 3.87
L17W | 2.96
L17Y | 3.55
Q18A | 3.7
Q18C | 3.1
Q18D | 3.58
Q18E | 3.3
Q18F | 2.19
Q18G | 3.79
Q18H | 3.02
Q18I | 2.47

Variant | protein stability index
Q18K | 3.51
Q18L | 2.92
Q18M | 2.86
Q18N | 3.6
Q18P | 3.26
Q18R | 3.37
Q18S | 3.19
Q18T | 3.36
Q18V | 3.11
Q18W | 2.45
Q18Y | 2.78
R19A | 3.48
R19C | 2.65
R19D | 4.26
R19E | 4.25
R19F | 1.69
R19G | 3.75
R19H | 2.78
R19I | 2.11
R19K | 3.14
R19L | 2.22
R19M | 3.03
R19N | 3.89
R19P | 3.75
R19Q | 3.33

Variant | protein stability index
R19S | 3.48
R19T | 2.85
R19V | 2.48
R19W | 2.25
R19Y | 2.72
L20A | 3.79
L20C | 4.17
L20D | 4.45
L20E | 4.49
L20F | 3.06
L20G | 4.34
L20H | 3.96
L20I | 3.3
L20K | 4.1
L20M | 4
L20N | 4.22
L20P | 4.21
L20Q | 4.33
L20R | 4.13
L20S | 4.11
L20T | 4.09
L20V | 3.79
L20W | 2.78
L20Y | 3.83
K21A | 3.59

Variant | protein stability index
K21C | 2.65
K21D | 3.88
K21E | 4.02
K21F | 2.85
K21G | 3.49
K21H | 3.29
K21I | 2.96
K21L | 3.01
K21M | 3.55
K21N | 3.57
K21P | 4.75
K21Q | 3.18
K21R | 3.28
K21S | 3.21
K21T | 3.38
K21V | 3.07
K21W | 2.85
K21Y | 2.98
L22A | 3.18
L22C | 3.94
L22D | 3.63
L22E | 4.33
L22F | 3.5
L22G | 3.44
L22H | 4.1

Variant | protein stability index
L22I | 3.77
L22K | 3.74
L22M | 3.44
L22N | 4.4
L22P | 4.24
L22Q | 4.27
L22R | 3.74
L22S | 4.21
L22T | 4.35
L22V | 3.92
L22W | 3.27
L22Y | 3.15
L23A | 4.14
L23C | 4.09
L23D | 4.62
L23E | 4.8
L23F | 3.88
L23G | 3.94
L23H | 4.26
L23I | 3.88
L23K | 4.22
L23M | 4.21
L23N | 4.54
L23P | 3.89
L23Q | 4.15

Variant | protein stability index
L23R | 3.94
L23S | 4.42
L23T | 4.03
L23V | 3.69
L23W | 3
L23Y | 3.12
K24A | 2.19
K24C | 1.98
K24D | 4.12
K24E | 3.52
K24F | 2.65
K24G | 3.2
K24H | 3.44
K24I | 2.28
K24L | 1.87
K24M | 4.03
K24N | 3.55
K24P | 3.55
K24Q | 2.68
K24R | 3.3
K24S | 2.82
K24T | 2.87
K24V | 1.92
K24W | 2.1
K24Y | 2.81

Variants of: B2
Test: as above
Conditions: c terminus: a fixed tail appended

Variant | protein stability index
S1A | 3.21
S1C | 2.86
S1D | 4.37
S1E | 4.26
S1F | 2.39
S1G | 3.69
S1H | 2.81
S1I | 2.44
S1K | 4.39
S1L | 2.26
S1M | 3.49
S1N | 3.19
S1P | 3.63
S1Q | 4.18
S1R | 3.64
S1T | 3.56
S1V | 3.06
S1W | 2.74
T2A | 3.58
T2C | 3.31
T2D | 4.43

Variant | protein stability index
T2E | 4.33
T2G | 2.54
T2H | 3.68
T2I | 2.07
T2K | 3.5
T2L | 2.21
T2M | 2.8
T2N | 4.11
T2P | 4.02
T2Q | 3.85
T2R | 3.5
T2S | 3.71
T2V | 2.81
T2W | 1.58
T2Y | 2.37
T3A | 2.94
T3C | 2.22
T3D | 3.97
T3E | 4.19
T3F | 2.29
T3G | 4.01

Variant | protein stability index
T3H | 2.49
T3I | 2.73
T3K | 3.42
T3L | 2.37
T3M | 2.31
T3N | 2.9
T3P | 3.56
T3Q | 2.84
T3R | 3.03
T3S | 4.02
T3V | 3.19
T3W | 1.84
T3Y | 2.83
E4A | 3.66
E4C | 1.66
E4D | 3.44
E4F | 2.29
E4G | 3.98
E4H | 3.37
E4I | 2.35
E4K | 4.24

Variant | protein stability index
E4L | 1.83
E4M | 2.27
E4N | 3.58
E4P | 3.65
E4Q | 2.71
E4R | 3.42
E4S | 3.79
E4T | 3.67
E4V | 3.1
E4W | 2.58
E4Y | 2.27
G5A | 3.23
G5C | 3.02
G5D | 2.49
G5E | 3.31
G5F | 2.25
G5H | 3.26
G5I | 1.92
G5K | 3.73
G5L | 3.64
G5M | 2.15
